From patent US20210205413A1 (Nektar Therapeutics, priority 2018, published 2021)
“Also recorded” adds a separate entry of the source.

What was measured:
[1] = Phase I single ascending subcutaneous dose study in healthy volunteers: pharmacokinetics; format: in vivo, human; details: for AUC0-14 d / Cmax / tmax: Single Dose Study
Method: (§1) A double-blind, randomized, placebo-controlled study is conducted to evaluate the safety, tolerability, pharmacokinetics, and pharmacodynamics of single ascending low sub-cutaneous doses of an RUR20kD-IL-2 composition (RUR20kD-IL-2) in healthy volunteers. […] Twelve subjects are randomized to each dose cohort, nine of whom received a single subcutaneous dose of RUR20kD-IL-2 while three received placebo. […] The drug product is supplied in single-use glass vials and stored at 2-8° C. […] Placebo is a commercially available 0.9% sodium chloride solution. A starting dose of 0.3 μg/kg is chosen using the minimally anticipated biological effect level (MABEL) approach and is supported by the no observed adverse effect level (NOAEL) in the most sensitive species from nonclinical toxicology studies.
(§2) The primary objective of the study is to evaluate the safety and tolerability of RUR20kD-IL-2 administered as a single subcutaneous dose. […] In a first phase of the study, immune markers are tested pre-dose up to 20 hours post-dose. Specifically, Tregs, CD4^+-T cells, CD8^+-T cells, natural killer (NK) cells, cytokines, soluble CD25, and RNA are tested in RUR20kD-IL-2- and placebo-receiving cohorts. In subsequent phases, the same immune markers are also tested at 4-, 5-, 6-, 7-, 8-, 10-, 12-, 15-, 18-, 20-, 25-, 30-, 40, and 50-days post-dose.

[2] = tested on: CD4+FoxP3+CD25bright Tregs; assay: Phase I single ascending dose study in healthy volunteers: Tregs in peripheral blood by flow cytometry; format: in vivo, human
Method: as §1, §2

[3] = tested on: Tregs; assay: Single-dose study in cynomologous monkey: Tregs in blood by flow cytometry; format: in vivo
Method: A series of blood samples are taken from each animal before treatment (day −6 and −1) and at multiple intervals following treatment for assessment by flow cytometry of Treg cell numbers and activation state.
For immunophenotyping analysis, blood samples (approximately 1.0 mL) are collected from each monkey at the following time points: Pre-treatment (Day −6 and −1), Day 2, Day 3, Day 4, Day 5, Day 6, Day 7, Day 10, Day 14, and Day 21 post treatment. Venipuncture samples are collected into tubes containing the anticoagulant, K2EDTA. Tubes are placed on wet ice pending transfer. The whole blood samples are analyzed by flow cytometry using the following panels, and the samples are analyzed for the following: • T cell panel: CD45/CD3/CD4/CD8/ICOS • TB/NK panel: CD45/CD3/CD16/CD20 • pSTAT5 panel: CD3/CD4/CD8/CD25/CD127/pSTAT5 • Treg panel 1: CD3/CD4/CD8/CD25/FoxP3/Ki67 • Treg panel 2: CD3/CD4/CD8/CD25/FoxP3/Helios Computerized systems can be used for the conduct of the study, for example flow cytometry data acquisition can use BD FACSCanto II/FACSDiva LEGENDPlex Data Analysis Software, and flow cytometry data analysis can use De Novo FCS Express software.
Values from male and female are averaged, and the magnitude of change is shown relative to d-1 values, marked by the dotted line.

[4] = Single dose pharmacokinetics in rats (IV and SC, LS-2016-2033); format: in vivo, Sprague-Dawley Rats
[5] = Sprague-Dawley rats, single IV 0.01 mg/kg, plasma, mean ± SE
[6] = Sprague-Dawley rats, single IV 0.1 mg/kg, plasma, mean ± SE
[7] = Sprague-Dawley rats, single IV 1 mg/kg, plasma, mean ± SE
[8] = Sprague-Dawley rats, single SC 0.01 mg/kg, plasma, mean ± SE
[9] = Sprague-Dawley rats, single SC 0.1 mg/kg, plasma, mean ± SE
[10] = Sprague-Dawley rats, single SC 1 mg/kg, plasma, mean ± SE

(1,3-bis(methoxypoly(ethylene glycol)10kDcarbamoyl)-2-propanoxy)-4-butanamide)interleukin-2) [RUR20kD-IL-2]
AUC0-14 d ([1]; 3.0 μg/kg, Median (n = 9)): 214 ng·days/mL | Cmax ([1]; 3.0 μg/kg, Median (n = 9)): 21 ng/mL | tmax ([1]; 3.0 μg/kg, Median (n = 9)): 84 h | AUC0-14 d ([1]; 3.0 μg/kg, max): 388 ng·days/mL | Cmax ([1]; 3.0 μg/kg, max): 41 ng/mL | tmax ([1]; 3.0 μg/kg, max): 336 h | AUC0-14 d ([1]; 3.0 μg/kg, min): 143 ng·days/mL | Cmax ([1]; 3.0 μg/kg, min): 13 ng/mL | tmax ([1]; 3.0 μg/kg, min): 31.2 h | Cmax ([1]; 6.0 μg/kg, Median (n = 9)): 46 ng/mL | tmax ([1]; 6.0 μg/kg, Median (n = 9)): 120 h | AUC0-14 d ([1]; 6.0 μg/kg, max): 705 ng·days/mL | Cmax ([1]; 6.0 μg/kg, max): 70 ng/mL | tmax ([1]; 6.0 μg/kg, max): 220 h | AUC0-14 d ([1]; 6.0 μg/kg, min): 73 ng·days/mL | Cmax ([1]; 6.0 μg/kg, min): 13 ng/mL | tmax ([1]; 6.0 μg/kg, min): 48 h | Half-life ([1]; healthy volunteers, single SC dose, decline after approximately 2 weeks post-dose, preliminary): 190 to 220 h | time of maximum concentrations post-dose ([1]; healthy volunteers, single SC dose, preliminary PK analysis): 4 to 6 days | mean increase in numbers of CD4+FoxP3+CD25bright Tregs compared to placebo ([2]; single SC 3.0 μg/kg): 3.0 fold | mean increase in numbers of CD4+FoxP3+CD25bright Tregs compared to pre-dose ([2]; single SC 3.0 μg/kg): 3 fold | time of peak (maximal) Treg response ([2]; single SC 3.0 μg/kg): 84 h | mean increase in numbers of CD4+FoxP3+CD25bright Tregs compared to placebo ([2]; single SC 6.0 μg/kg): 3.5 fold | mean increase in numbers of CD4+FoxP3+CD25bright Tregs compared to pre-dose ([2]; single SC 6.0 μg/kg): 3.5 fold | mean increase in numbers of CD4+FoxP3+CD25bright Tregs compared to placebo ([2]; single SC 9.0 μg/kg): 4.1 fold | mean increase in numbers of CD4+FoxP3+CD25bright Tregs compared to pre-dose ([2]; single SC 9.0 μg/kg): 4.1 fold | mean increase in numbers of CD4+FoxP3+CD25bright Tregs compared to placebo ([2]; single SC 13.5 μg/kg): 5.0 fold | mean increase in numbers of CD4+FoxP3+CD25bright Tregs compared to pre-dose ([2]; single SC 13.5 μg/kg): 5 fold | mean increase in numbers of CD4+FoxP3+CD25bright Tregs compared to pre-dose ([2]; single SC 20.0 μg/kg): 8.1 fold | increase in mean peak Treg:CD8 ratio over baseline ([2]; single SC 28 μg/kg): 15 fold | mean peak increase in numbers of CD25-bright Tregs above pre-dose values ([2]; single SC 28 μg/kg): 17 fold | mean peak percentage of CD25bright Tregs ([2]; single SC 28.0 μg/kg, increased from 0.5%): 7.4% | numbers of Tregs versus placebo subjects ([2]; single SC 0.3 and 1.0 μg/kg): no change in the numbers of Tregs; also recorded: No changes in total CD4+ Tregs | total CD4+FoxP3+CD25+ Treg population ([2]; single SC 3.0, 6.0, 9.0 and 13.5 μg/kg): dose-dependent increase in the total CD4+FoxP3+CD25+ Treg population | doses at which increases in Treg activation markers (ICOS and CTLA4) were observed ([2]; single SC dose): ≥ 0.0135 mg/kg | time until CD4+FoxP3+CD25bright Treg levels return to baseline ([2]; single SC dose, 3.0 μg/kg and above): 20 to 25 days | days at which Treg levels peak ([2]; single SC dose, 3.0 to 28.0 μg/kg cohorts): 10 to 12 days | day FoxP3 MFI nearly returns to pre-dose levels ([3]; single SC 25 μg/kg): 14 to 21 days | day by which CD25 MFI returns to near pre-dose levels ([3]; single SC 25 μg/kg): ≤ 21 days | day of maximum CD25 MFI ([3]; single SC 25 μg/kg): 6 days | days by which Treg numbers return to near d-1 levels ([3]; single SC 25 μg/kg): 14 to 21 days | time of maximum FoxP3 MFI ([3]; single SC 25 μg/kg): 6 days | time of maximum Treg cell numbers ([3]; single SC 25 μg/kg): seven days following administration | duration of sustained Treg mobilization and activity ([3]; single administration): over 14 days | AUCinf [4, 5]: 17800 ± 1000 ng·h/mL | AUClast [4, 5]: 17800 ± 900 ng·h/mL | CL [4, 5]: 13.4 ± 0.72 mL/day/kg | Half-life [4, 5]: 30 ± 3.84 h | MRTinf [4, 5]: 44.9 ± 5.04 h | Vss [4, 5]: 0.0251 L/kg | AUCinf [4, 6]: 120000 ± 8000 ng·h/mL | AUClast [4, 6]: 120000 ± 8000 ng·h/mL | CL [4, 6]: 20.2 ± 1.4 mL/day/kg | Half-life [4, 6]: 40.1 ± 0.24 h | MRTinf [4, 6]: 52.3 ± 0.96 h | Vss [4, 6]: 0.0441 ± 0.0035 L/kg | AUCinf [4, 7]: 877000 ± 39000 ng·h/mL | AUClast [4, 7]: 870000 ± 35000 ng·h/mL | CL [4, 7]: 27.4 ± 1.2 mL/day/kg | Half-life [4, 7]: 37.4 ± 5.28 h | MRTinf [4, 7]: 45.6 ± 3.84 h | Vss [4, 7]: 0.0526 L/kg | Absolute Bioavailability ([4]; Sprague-Dawley rats, single SC 0.01 mg/kg): 40.2% | AUCinf [4, 8]: 7160 ± 530 ng·h/mL | AUClast [4, 8]: 7120 ± 510 ng·h/mL | Cmax [4, 8]: 95 ± 6 ng/mL | Half-life [4, 8]: 32.4 ± 1.4 h | MRTinf [4, 8]: 64.8 ± 1.4 h | tmax [4, 8]: 31.9 ± 7.92 h | Absolute Bioavailability ([4]; Sprague-Dawley rats, single SC 0.1 mg/kg): 29.8% | AUCinf [4, 9]: 35700 ± 5100 ng·h/mL | AUClast [4, 9]: 35500 ± 5100 ng·h/mL | Cmax [4, 9]: 380 ± 40 ng/mL | Half-life [4, 9]: 46.1 ± 1.9 h | MRTinf [4, 9]: 82.1 ± 6.72 h | tmax [4, 9]: 48 ± 0 h | Absolute Bioavailability ([4]; Sprague-Dawley rats, single SC 1 mg/kg): 46.0% | AUCinf [4, 10]: 404000 ± 79000 ng·h/mL | AUClast [4, 10]: 398000 ± 74000 ng·h/mL | Cmax [4, 10]: 4860 ± 930 ng/mL | Half-life [4, 10]: 30.5 ± 7.68 h | MRTinf [4, 10]: 67.7 ± 3.84 h | tmax [4, 10]: 55.2 ± 7.92 h | Vss relative to species-specific plasma volume ([4]; rats): 1-2 fold | Bioavailability ([4]; rats, SC, range over doses): 29.8-46.0% | tmax ([4]; rats, SC, range over doses): 24 to 55.2 h | half-lives ([4]; rats, intravenous or subcutaneous dosing, range): 1.25 to 2.44 days | Plasma clearance (CL) ([4]; rats, range over doses): 13.4 to 27.4 mL/day/kg
